Laboratory results reported in patent publication US8202973B2, “Method for the production of vitamin K-dependent proteins” (Novo Nordisk Health Care AG, priority 2000, dated 2012).

system: CHO-K1 cells; assay: FVII expression of CHO-K1 cells coexpressing FVII and a free FVII propeptide; format: cell-based; settings: pools of CHO-K1 transfectants, pLN174 plus FVII propeptide in pcDNA3.1+; control with empty vector approximately 1 pg/cell/day
Description: CHO K1 cells (ATCC CCI61) were transfected with equal amounts of pLN174 and pLN329 with the Fugene6 method (Boehriner-Mannheim). Transfectants were selected by the addition of methotrexate to 1 μM and G-418 to 0.45 mg/ml. The pool of transfectants were cloned by limiting dilution and FVII expression from the clones was measured.
CHO-K1 cells were transfected with pLN174 and 1) empty pcDNA3.1+ vector or 2) FVII propeptide in pcDNA3.1+, as described in Example 1. Pools of transfectants were analysed for FVII expression and cell numbers. The FVII yields pr. cell pr. 24 hours are outlined in FIG. 3.

With “propeptide of FVII, AVFVTQEEAHGVLHRRRR (SEQ ID NO:7); expressed free from plasmid pLN329 (listed as Homo sapiens)” as the substance, how does the “FVII yields pr. cell pr. 24 hours” value read?
The value was ~4 pg/cell/day.

biological target: T1, gamma-glutamyl carboxylase (Homo sapiens, UniProt P38435); assay: not given; settings: free propeptide of vitamin K-dependent protein, positions -18 to -1; cited from earlier work
T1 sequence (P38435 1-758): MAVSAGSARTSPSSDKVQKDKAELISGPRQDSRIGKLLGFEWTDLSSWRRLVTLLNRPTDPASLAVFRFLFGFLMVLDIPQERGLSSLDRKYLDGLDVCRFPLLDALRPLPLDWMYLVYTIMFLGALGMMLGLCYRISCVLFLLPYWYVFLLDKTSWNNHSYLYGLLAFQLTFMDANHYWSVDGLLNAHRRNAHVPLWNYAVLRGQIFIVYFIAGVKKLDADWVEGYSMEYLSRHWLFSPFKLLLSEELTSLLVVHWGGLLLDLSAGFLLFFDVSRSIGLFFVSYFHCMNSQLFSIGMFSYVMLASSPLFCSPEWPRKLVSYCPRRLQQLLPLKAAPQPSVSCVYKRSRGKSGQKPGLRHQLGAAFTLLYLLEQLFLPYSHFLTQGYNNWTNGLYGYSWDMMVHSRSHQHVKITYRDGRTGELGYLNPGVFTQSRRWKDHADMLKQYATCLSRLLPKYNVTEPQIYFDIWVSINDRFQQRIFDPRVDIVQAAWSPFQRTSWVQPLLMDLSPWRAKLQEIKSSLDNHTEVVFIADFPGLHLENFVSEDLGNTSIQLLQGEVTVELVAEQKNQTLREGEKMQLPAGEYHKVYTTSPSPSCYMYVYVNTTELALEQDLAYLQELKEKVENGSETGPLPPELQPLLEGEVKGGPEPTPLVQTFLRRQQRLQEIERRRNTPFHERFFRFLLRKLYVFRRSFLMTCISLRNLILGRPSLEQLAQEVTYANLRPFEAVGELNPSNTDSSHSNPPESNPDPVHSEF

With “consensus propeptide sequence AVFLSREQANQVLQRRRR (SEQ ID NO:1) (listed as Homo sapiens)” as the substance, how does the Ki read?
The Ki was 0.00043 µM.

For “propeptide of FVII, AVFVTQEEAHGVLHRRRR (SEQ ID NO:7); expressed free from plasmid pLN329 (listed as Homo sapiens)”, which Ki is on record?
The Ki was 0.0111 µM.

For “propeptide of Matrix Gla Protein, NPFINRRNANTFISPQQR (SEQ ID NO:3)”, which Ki is on record?
Its Ki is 0.0058 µM.

With “propeptide of Protein C, SVFSSSERAHQVLRIRKR (SEQ ID NO:9) (listed as Homo sapiens)” as the substance, how does the Ki read?
Its Ki is 0.23 µM.

Which Ki does the source give for “propeptide of Protein S, ANFLSKQQASQVLVRKRR (SEQ ID NO:4) (listed as Homo sapiens)” here?
The Ki was 0.0122 µM.

For “propeptide of Prothrombin, HVFLAPQQARSLLQRVRR (SEQ ID NO:6) (listed as Homo sapiens)”, which Ki is on record?
The Ki was 0.277 µM.

Which Ki does the source give for “propeptide of factor X, SLFIRREQANNILARVTR (SEQ ID NO:2) (listed as Homo sapiens)” here?
The Ki was 0.0026 µM.

Which Ki does the source give for “propeptide of proline-rich Gla protein 1, RVFLTGEKANSILKRYPR (SEQ ID NO:5) (listed as Homo sapiens) [PRGP1]” here?
The Ki was 0.0128 µM.
